B1: SPATS1 (parent)
chain: YPEQSKGFHKAGSMLPPVNFSIVP

Variants of: B1
Assay: protein stability index of a GFP-peptide fusion (GPS, HEK-293T) (PSI 1-6); higher = more stable
Settings: c terminus: a fixed tail appended
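Also: lentivirally expressed fusions sorted by FACS into six bins by GFP to DsRed ratio, PSI derived from sequencing read proportions per bin multiplied by bin number.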

Protein stability index of substitutions, site by site:
Q4: D 2.71, G 1.89, F 3.4, T 1.8, L 1.81, P 2.16, E 3.03, H 2.29, I 1.85, A 3.18, W 3.72, C 1.8, S 1.99, N 1.89, M 1.39, K 1.77, V 2.43, R 1.79, Y 2.56
G7: T 3.08, M 2.2, D 2.86, A 2.45, P 1.71, R 2.92, K 2.39, E 1.63, S 1.9, Y 2.14, H 1.43, N 2.09, L 2.24, C 1.94, V 1.86, F 2.12, I 2.34, W 1.7, Q 1.73
K6: G 2.09, T 1.92, Y 1.93, S 2.56, F 2.1, C 2.38, L 1.75, I 1.86, Q 1.71, D 2.29, R 1.71, M 2.26, E 2.41, A 1.92, P 2.17, H 1.71, V 1.67, N 1.91, W 1.9
F8: W 3.05, C 2.78, Y 1.97, D 4.19, A 3.6, I 3.44, T 3.18, P 3.39, Q 3.39, S 3.57, L 2.9, N 3.83, E 3.69, R 3.17, K 3.32, H 3.07, M 2.43, V 2.86, G 3.58
K10: F 1.57, G 1.52, E 2.58, A 1.85, D 2.54, H 1.44, C 3.44
H9: A 2.1, T 2.16, F 4.31, L 1.66, D 2.94, N 2.75, I 2.38, R 2.42, G 2.13, M 2.14, V 2.13, W 3.39, E 2.81, C 1.82, Y 2.21, P 2.19, Q 2.51, K 2.56, S 2.4
P2: G 1.8, F 1.77, A 1.85, V 2.62, C 1.62, I 1.83, M 2.48, D 3.19, S 2.43, R 2.57, L 2.29, T 1.77, N 2.47, Q 2.51, H 2.04, W 1.45, Y 1.91, K 2.87, E 3.33
S5: E 2.69, Y 2.1, C 1.96, P 2.15, R 2.67, Q 2.55, M 2.37, V 2.45, K 2.49, D 2.74, F 2.3, T 2.23, A 2.17, H 2.1, I 2.2, N 1.99, G 2.52, W 2.18, L 2.15
E3: I 2.12, D 2.24, M 2.14, N 2.39, F 2.11, S 2, T 2.02, G 1.82, R 1.64, V 1.76, K 1.8, P 2.09, C 2.35, Y 2.03, A 1.78, L 1.9, W 2.01, Q 2.5, H 1.81
Y1: Q 3.43, S 3.36, P 3.33, T 3.22, W 2.69, V 3.31, R 3.04, N 3.52

Source: the supplement of paper PMC10567573
